Test [1] addresses human CEACAM5 expressed on cancer cell lines (MKN-45, NCI-H441, SNU-16, SK-CO-1, LS174T) (human) (UniProt P06731). The experiment in a line: flow cytometry, MKN-45 cells, 10 µg/mL antibody.
The target is the same in test [2]. Description: flow cytometry, NCI-H441 cells, 10 µg/mL antibody.

Chain of human CEACAM5 expressed on cancer cell lines (MKN-45, NCI-H441, SNU-16, SK-CO-1, LS174T) (human) (P06731 35-685): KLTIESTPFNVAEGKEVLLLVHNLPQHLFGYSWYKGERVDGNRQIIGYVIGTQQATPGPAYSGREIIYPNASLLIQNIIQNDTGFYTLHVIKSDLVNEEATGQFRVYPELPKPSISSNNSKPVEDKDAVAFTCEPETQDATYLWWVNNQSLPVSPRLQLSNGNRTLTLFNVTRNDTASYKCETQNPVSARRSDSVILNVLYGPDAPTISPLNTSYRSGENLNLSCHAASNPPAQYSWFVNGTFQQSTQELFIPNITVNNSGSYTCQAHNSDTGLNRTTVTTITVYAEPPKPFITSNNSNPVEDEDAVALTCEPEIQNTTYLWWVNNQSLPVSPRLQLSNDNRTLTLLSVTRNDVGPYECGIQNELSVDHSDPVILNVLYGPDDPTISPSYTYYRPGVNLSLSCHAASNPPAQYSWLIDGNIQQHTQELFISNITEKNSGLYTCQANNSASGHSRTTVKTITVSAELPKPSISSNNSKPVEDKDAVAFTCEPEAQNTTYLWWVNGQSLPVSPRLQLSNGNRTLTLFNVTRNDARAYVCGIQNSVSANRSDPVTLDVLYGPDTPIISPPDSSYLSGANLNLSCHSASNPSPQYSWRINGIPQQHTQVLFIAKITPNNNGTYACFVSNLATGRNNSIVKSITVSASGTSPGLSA

For the substance “mouse monoclonal anti-CEACAM5 antibody Agilent Dako #M7072 clone II7”, the figures for the quotient of MFI of antibody divided by MFI of secondary antibody only control in test [1] and in test [2] were 3.8 and 1.1, respectively.

For the origin of these results see patent US20240010749A1.
